{"source": "patent US12060408B2", "about": "“Screening assays, modulators and modulation of activation of Receptor for Advanced Glycation End-products (RAGE)” (Monash University, priority 2017, dated 2024)", "type_in_all_cases": "cell-based", "key": {"CCR1": {"molecular_target": "T1, CCR1 (Homo sapiens, UniProt P32246)", "T1 construct": "expressed in transfected cells; host or cells: HEK293FT, transient", "T1 sequence (P32246 whole entry)": "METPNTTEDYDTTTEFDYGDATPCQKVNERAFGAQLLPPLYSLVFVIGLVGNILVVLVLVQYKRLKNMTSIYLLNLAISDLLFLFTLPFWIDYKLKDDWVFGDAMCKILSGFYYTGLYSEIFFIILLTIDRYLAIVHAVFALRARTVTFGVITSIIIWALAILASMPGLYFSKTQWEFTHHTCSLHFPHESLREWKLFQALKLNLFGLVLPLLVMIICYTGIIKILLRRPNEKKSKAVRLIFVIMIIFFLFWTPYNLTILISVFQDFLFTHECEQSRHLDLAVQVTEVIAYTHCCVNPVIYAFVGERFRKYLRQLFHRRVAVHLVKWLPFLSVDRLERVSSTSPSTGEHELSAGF", "T1 sequence (P32121 whole entry partner)": "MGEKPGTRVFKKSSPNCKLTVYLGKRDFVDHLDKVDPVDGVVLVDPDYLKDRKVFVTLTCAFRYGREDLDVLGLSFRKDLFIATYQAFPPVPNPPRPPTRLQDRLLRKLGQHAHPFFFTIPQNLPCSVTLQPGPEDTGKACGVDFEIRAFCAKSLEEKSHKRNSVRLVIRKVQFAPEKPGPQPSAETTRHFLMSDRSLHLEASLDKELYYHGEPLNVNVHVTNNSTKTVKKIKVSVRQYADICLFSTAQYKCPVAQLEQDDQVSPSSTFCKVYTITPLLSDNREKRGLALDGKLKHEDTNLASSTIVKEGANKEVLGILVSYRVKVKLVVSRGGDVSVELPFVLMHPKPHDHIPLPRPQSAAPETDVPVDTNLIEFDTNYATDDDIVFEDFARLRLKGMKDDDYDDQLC", "assay": "Receptor-HIT BRET, β-arr2/Venus with RAGE/Rluc8 and CCR1", "details": "in the presence of CCR1", "source_text": "(§1) Bioluminescence Resonance Energy Transfer (BRET)\n(§2) BRET is an established technology for studying protein-protein proximity in live cells, particularly involving GPCRs (Pfleger and Eidne, 2006). One protein of interest was linked to a bioluminescent donor enzyme, Rluc8, a variant of Renilla luciferase, and a second linked to an acceptor fluorophore, Venus, a variant of green fluorescent protein. If in close proximity (<10 nm), energy resulting from the rapid oxidation of a cell-permeable coelenterazine substrate by the donor can transfer to the acceptor, which in turn fluoresces at a longer characteristic wavelength.\n(§3) Plasmids were transiently co-expressed in human embryonic kidney (HEK) 293FT cells and BRET measurements taken at 37° C. using a POLARstar Omega or LUMIstar plate reader (BMG Labtech, Mornington, Victoria, Australia) with 460-490 nm (‘donor emission’) and 520-550 nm (‘acceptor emission’) filters, or a VICTOR Light plate reader (Perkin Elmer, Glen Waverley, Victoria, Australia) with 400-475 nm (‘donor emission’) and 520-540 nm (‘acceptor emission’) filters, or a CLARIOstar plate reader (BMG Labtech, Mornington, Victoria, Australia) with 420-480 nm (‘donor emission’) and 520-620 nm (‘acceptor emission’) filters. […]\n(§4) For BRET kinetic assays, the final pre-treatment reading is presented at the zero time point (time of ligand/vehicle addition). […]"}, "CCR7": {"molecular_target": "T2, CCR7 (Homo sapiens, UniProt P32248)", "T2 construct": "expressed in transfected cells; host or cells: HEK293FT, transient", "T2 sequence (P32248 25-378)": "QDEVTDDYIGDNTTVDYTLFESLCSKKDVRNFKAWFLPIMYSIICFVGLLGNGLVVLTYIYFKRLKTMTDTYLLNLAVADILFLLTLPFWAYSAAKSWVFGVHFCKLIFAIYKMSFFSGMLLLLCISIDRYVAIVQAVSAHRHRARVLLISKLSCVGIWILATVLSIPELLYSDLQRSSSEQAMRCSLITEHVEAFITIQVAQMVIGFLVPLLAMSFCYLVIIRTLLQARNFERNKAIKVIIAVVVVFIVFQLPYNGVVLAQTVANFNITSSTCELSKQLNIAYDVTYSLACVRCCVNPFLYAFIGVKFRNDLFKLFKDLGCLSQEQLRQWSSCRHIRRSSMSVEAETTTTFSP", "T2 sequence (P32121 whole entry partner)": "as the sequence (P32121 whole entry partner) above", "assay": "Receptor-HIT BRET, β-arr2/Venus with RAGE/Rluc8 and CCR7", "details": "in the presence of CCR7", "source_text": "as §1, §2, §3, §4"}, "CCR6": {"molecular_target": "T3, CCR6 (Homo sapiens, UniProt P51684)", "T3 construct": "expressed in transfected cells; host or cells: HEK293FT, transient", "T3 sequence (P51684 whole entry)": "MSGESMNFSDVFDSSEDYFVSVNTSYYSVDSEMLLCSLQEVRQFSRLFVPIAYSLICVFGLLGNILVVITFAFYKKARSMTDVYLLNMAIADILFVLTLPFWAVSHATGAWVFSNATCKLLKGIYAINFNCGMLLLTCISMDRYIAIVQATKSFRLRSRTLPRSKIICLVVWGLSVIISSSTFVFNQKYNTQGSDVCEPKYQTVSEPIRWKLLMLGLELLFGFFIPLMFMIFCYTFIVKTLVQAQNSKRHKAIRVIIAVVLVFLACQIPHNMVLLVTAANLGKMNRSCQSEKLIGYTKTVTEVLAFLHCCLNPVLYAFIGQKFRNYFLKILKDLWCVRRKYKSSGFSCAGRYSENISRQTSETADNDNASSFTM", "T3 sequence (P32121 whole entry partner)": "as the sequence (P32121 whole entry partner) above", "assay": "Receptor-HIT BRET, β-arr2/Venus with RAGE/Rluc8 and CCR6", "details": "in the presence of CCR6", "source_text": "as §1, §2, §3, §4"}, "CXCR1": {"molecular_target": "T4, CXCR1 (Homo sapiens, UniProt P25024)", "T4 construct": "expressed in transfected cells; host or cells: HEK293FT, transient", "T4 sequence (P25024 whole entry, species assumed)": "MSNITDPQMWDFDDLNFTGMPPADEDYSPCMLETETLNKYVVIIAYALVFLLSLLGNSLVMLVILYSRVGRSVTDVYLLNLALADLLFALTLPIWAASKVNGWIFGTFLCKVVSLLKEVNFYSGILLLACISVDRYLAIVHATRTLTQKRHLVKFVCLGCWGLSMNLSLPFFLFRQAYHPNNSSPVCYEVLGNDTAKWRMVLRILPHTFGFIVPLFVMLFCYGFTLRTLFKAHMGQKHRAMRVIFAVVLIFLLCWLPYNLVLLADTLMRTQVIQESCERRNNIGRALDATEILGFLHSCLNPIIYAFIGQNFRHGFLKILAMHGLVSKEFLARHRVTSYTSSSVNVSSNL", "T4 sequence (P32121 whole entry partner, species assumed)": "as the sequence (P32121 whole entry partner) above", "assay": "Receptor-HIT BRET, β-arr2/Venus with RAGE/Rluc8 and CXCR1", "details": "in the presence of CXCR1", "source_text": "as §1, §2, §3, §4"}, "CXCR2": {"molecular_target": "T5, CXCR2 (Homo sapiens, UniProt P25025)", "T5 construct": "expressed in transfected cells; host or cells: HEK293FT, transient", "T5 sequence (P25025 whole entry)": "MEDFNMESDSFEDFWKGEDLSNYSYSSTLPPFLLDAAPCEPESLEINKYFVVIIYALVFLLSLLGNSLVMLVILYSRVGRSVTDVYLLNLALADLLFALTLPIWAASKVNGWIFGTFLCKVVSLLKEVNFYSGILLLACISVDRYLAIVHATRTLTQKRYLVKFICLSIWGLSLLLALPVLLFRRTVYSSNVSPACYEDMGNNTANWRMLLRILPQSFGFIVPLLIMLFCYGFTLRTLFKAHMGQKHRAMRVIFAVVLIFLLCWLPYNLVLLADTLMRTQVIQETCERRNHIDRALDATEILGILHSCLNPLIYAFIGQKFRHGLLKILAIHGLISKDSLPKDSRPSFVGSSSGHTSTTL", "T5 sequence (P32121 whole entry partner)": "as the sequence (P32121 whole entry partner) above", "assay": "Receptor-HIT BRET, β-arr2/Venus with RAGE/Rluc8 and CXCR2", "details": "in the presence of CXCR2", "source_text": "as §1, §2, §3, §4"}}}
{"substance": "CCL3: chemokine ligand used to activate CCR1", "values": [{"measurement": "recruitment of β-arr2/Venus proximal to RAGE/Rluc8", "setting": "CCR1", "value": "recruitment"}]}
{"substance": "CCL19: chemokine ligand used to activate CCR7", "values": [{"measurement": "recruitment of β-arr2/Venus proximal to RAGE/Rluc8", "setting": "CCR7", "value": "recruitment"}]}
{"substance": "CCL20: chemokine ligand used to activate CCR6", "values": [{"measurement": "recruitment of β-arr2/Venus proximal to RAGE/Rluc8", "setting": "CCR6", "value": "recruitment"}]}
{"substance": "CXCL8: chemokine ligand used to activate CXCR1 and CXCR2", "values": [{"measurement": "recruitment of β-arr2/Venus proximal to RAGE/Rluc8", "setting": "CXCR1", "value": "Weak"}, {"measurement": "recruitment of β-arr2/Venus proximal to RAGE/Rluc8", "setting": "CXCR2", "value": "recruitment"}]}
